Data published in the supplement of paper PMC9170038.

Tested on: MS2 coat protein
Test: apparent KD of MS2 coat protein; designed switch direction (-1 OFF switch, 1 ON switch): 1; higher = weaker reporter binding
Outline: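 RNA switches sharing common flanks were transcribed by stalled E. coli RNA polymerase on Illumina chips. A doubling series of SNAP-549-labelled MS2 coat protein, from 0.7 or 1.5 nM to 3 µM, was applied in Tris-HCl pH 7.5 buffer with KCl, MgCl2, BSA, DTT, tRNA and Tween-20. Each step lasted 0.8–1.5 h at the bottom of the series and 10–20 min at the top. Normalised cluster fluorescence was curve-fitted, giving apparent KD as the per-design median over clusters.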

[1] = input ligand: microRNA oligo, concentration not stated
[2] = Eterna round: R95, input ligand: FMN 200 uM
[3] = Eterna round: R95, input ligand: microRNA oligo, concentration not stated
[4] = Eterna round: R95, input ligand: none

In the case of “UGGUACAUGGGAGGAUAUCUCAUGGUGACAUGAGGAUCACCCAUGUAGUUGGACCGGAAACGGUGAGAGAAGGCCCAUGUACCU [JL SSNG1 3.74] (Eterna round: R96, puzzle: Same State NG 2)”, the “apparent KD of MS2 coat protein” value (input ligand: FMN 200 uM) is reported as 72.1 nM, the “apparent KD of MS2 coat protein” value [1] is reported as 68.3 nM and the “apparent KD of MS2 coat protein” value (input ligand: none) is reported as 95.9 nM.

In the case of “CUUUUUAAUGCAGGAUAUGAUCAACAUGAGGAUCACCCAUGUGGUGUUGUGAGUAAGGAGAGUGAUCAGAAGGGCAUCUUCUCA [SS-NG2-LRO05] (Eterna round: R96, puzzle: Same State NG 2)”, the “apparent KD of MS2 coat protein” value (input ligand: FMN 200 uM) is reported as 301 nM, the “apparent KD of MS2 coat protein” value [1] is reported as 133 nM and the “apparent KD of MS2 coat protein” value (input ligand: none) is reported as 169 nM.

In the case of “GUGGCACAUGAGGAUCACCCAUGUGGGUAGAACAUAGGAUAUCACCAACAAAAUACCCGGUGAGAAGGAUGAUGCC [Esanesdi] (puzzle: Same State 1)”, the “apparent KD of MS2 coat protein” value [2] is reported as 118 nM, the “apparent KD of MS2 coat protein” value [3] is reported as 121 nM and the “apparent KD of MS2 coat protein” value [4] is reported as 161 nM.

For “AUUAUUUCAUGAGGAUAUGGCACCUUAUUGGUGCCAGAAGGCAUGUCUAUAAGACAUGAGGAUCACCCAUGUUUAAAUUAUAUA [Eli NG1ss - 90] (Eterna round: R96, puzzle: Same State NG 1)”, the “apparent KD of MS2 coat protein” value (input ligand: FMN 200 uM) was 24.1 nM, the “apparent KD of MS2 coat protein” value [1] was 164 nM and the “apparent KD of MS2 coat protein” value (input ligand: none) was 181 nM.

“GACCAACAUGAGGAUCACCCAUGUUUCUGAGGCACAGGAUAUCGACAGGCAAGACACCUGCGAGAAGGGUGACCUC [Same State 1 - Mod of Vinnie Diatater v.3] (puzzle: Same State 1)” was tested, and the “apparent KD of MS2 coat protein” value [2] was 49.2 nM, the “apparent KD of MS2 coat protein” value [3] was 38.8 nM and the “apparent KD of MS2 coat protein” value [4] was 30.2 nM.

“GGAUCGGAGGCAGGAUAUGGGCUCAGAACAUGAGGAUCACCCAUGUAAAACGGCGCAAUGCGCCACCAGAAGGGCCUCCGACCG [Inmadibi] (Eterna round: R96, puzzle: Same State NG 2)” was tested, and the “apparent KD of MS2 coat protein” value (input ligand: FMN 200 uM) was 8.62 nM, the “apparent KD of MS2 coat protein” value [1] was 17.8 nM and the “apparent KD of MS2 coat protein” value (input ligand: none) was 44.7 nM.

“GCUAGAAUAAACGCCUACAUGAGGAUCACCCAUGUAUGUAGGCAGGAUAUCGUAUGCAAAGCAUACGAGAAGGGCCUUACUAGC [Mat - Same State NG 3 - JL Mod - D33] (Eterna round: R96, puzzle: Same State NG 3)” was tested, and the “apparent KD of MS2 coat protein” value (input ligand: FMN 200 uM) was 25.7 nM, the “apparent KD of MS2 coat protein” value [1] was 27.7 nM and the “apparent KD of MS2 coat protein” value (input ligand: none) was 43.4 nM.

For “UAAGCAUUCCUAGGAUAUGUAGGAUAUGUACAUGAGGAUCACCCAUGUCUACCAGAGACAGAAGGACAGAAGGAGGAAUGCUUC [pwkr ssNG2 2FMN 1F5s.8] (Eterna round: R96, puzzle: Same State NG 2)”, the “apparent KD of MS2 coat protein” value (input ligand: FMN 200 uM) was 19.1 nM, the “apparent KD of MS2 coat protein” value [1] was 25.8 nM and the “apparent KD of MS2 coat protein” value (input ligand: none) was 36.5 nM.

With “ACAUGAGAGUGAGGAUAUCAUGUACCUACAUGUGACAUGAGGAUCACCCAUGUGGUAAGUAUGACUGAGAAGGCACAGAUAUGU [Equivalance 90 - Jieux - Same State NG 2] (Eterna round: R96, puzzle: Same State NG 2)” the “apparent KD of MS2 coat protein” value (input ligand: FMN 200 uM) was 70.3 nM, the “apparent KD of MS2 coat protein” value [1] was 267 nM and the “apparent KD of MS2 coat protein” value (input ligand: none) was 889 nM.

In the case of “GGUACAGUUACAGGAUAUGCUAUCCUUUGGGUAGCAGAAGGGUGGUAACAUGAGGAUCACCCAUGUGUGCCAGGGCGUGAGCCC [JL SSNG1 1.99] (Eterna round: R96, puzzle: Same State NG 1)”, the “apparent KD of MS2 coat protein” value (input ligand: FMN 200 uM) is reported as 502 nM, the “apparent KD of MS2 coat protein” value [1] is reported as 387 nM and the “apparent KD of MS2 coat protein” value (input ligand: none) is reported as 700 nM.

In the case of “AUUAAACAUGAGGAUCACCCAUGUCAACAAAGUCGAGGAUAUGGGCAAAUAAAAUAAGAUCCAGAAGGCGAAUAAU [salish99_ss1_r3_067] (puzzle: Same State 1)”, the “apparent KD of MS2 coat protein” value [2] is reported as 55.7 nM, the “apparent KD of MS2 coat protein” value [3] is reported as 16.8 nM and the “apparent KD of MS2 coat protein” value [4] is reported as 19.5 nM.

For “AGUCCAGCGAAAGCUGGACAAAAGCAUGUACAUGAGGAUCACCCAUGUUCAUGUACAAGCUUUUUGCUCGUCUUGAA [JL mod - D95 - 9] (puzzle: Sensor for hsa-mir-208a)”, the “apparent KD of MS2 coat protein” value [2] was 313 nM, the “apparent KD of MS2 coat protein” value [3] was 17.1 nM and the “apparent KD of MS2 coat protein” value [4] was 611 nM.

“GAGGCACAUGAGGAUCACCCAUGUGGGUAGAACAUAGGAUAUCACCAACAAAUUACCCGGUGAGAAGGAUGAUGCC [Zalaarza] (puzzle: Same State 1)” was tested, and the “apparent KD of MS2 coat protein” value [3] was 151 nM.

“UAAAGAUCGCGAGGAUAUCGCGAGGAUCACCCGUGAGAAGGCGCAGAGCCGAGGAUCACCCGGCUGAUCCUGAGGAGGAGGUCU (Eterna round: R96, puzzle: Same State NG 1)” was tested, and the “apparent KD of MS2 coat protein” value (input ligand: FMN 200 uM) was 124 nM, the “apparent KD of MS2 coat protein” value [1] was 202 nM and the “apparent KD of MS2 coat protein” value (input ligand: none) was 318 nM.

For “CUCAAACAUGAGGAUCACCCAUGUGUUGUCAUGGGAGGAUAUCUAAGUUCGUUGUAUUCGGGAGAAGGCCUAUGUC [× ×•×ª×• ×ž×“×™× ×” × ×—×ª-10] (puzzle: Same State 1)”, the “apparent KD of MS2 coat protein” value [3] was 199 nM.

In the case of “CCGGUUAAUGGAGGAUAUGGAGCCUUAUUGGCUCCAGAAGGCUAAACAUGAGGAUCACCCAUGUUACCGGCGGUCAAUAGACCG [Eli NG1ss - 61] (Eterna round: R96, puzzle: Same State NG 1)”, the “apparent KD of MS2 coat protein” value (input ligand: FMN 200 uM) is reported as 11.5 nM, the “apparent KD of MS2 coat protein” value [1] is reported as 18 nM and the “apparent KD of MS2 coat protein” value (input ligand: none) is reported as 23 nM.

With “GCGAGCGUACUUGCUACAUGAGGAUCACCCAUGUUUUAUGGACAGGAUAUGGUACCGUUUCGGUACCAGAAGGGUUCACAUGUG [JL SSNG3 3.82] (Eterna round: R96, puzzle: Same State NG 3)” the “apparent KD of MS2 coat protein” value (input ligand: FMN 200 uM) was 133 nM, the “apparent KD of MS2 coat protein” value [1] was 186 nM and the “apparent KD of MS2 coat protein” value (input ligand: none) was 254 nM.

For “GGGAGAGACGUAGGAUAUGGAAGAAGAUAGAGACUAGAAGGGUGAACAUGAGAAUCGAAGUGUAAAGUGAGAUGAGGUGGGAGA [iteri-1] (Eterna round: R96, puzzle: Same State NG 1)”, the “apparent KD of MS2 coat protein” value (input ligand: FMN 200 uM) was 26.5 nM, the “apparent KD of MS2 coat protein” value [1] was 16.9 nM and the “apparent KD of MS2 coat protein” value (input ligand: none) was 36.9 nM.

In the case of “GCGAAGAGGUAAGGAUAUGCAUGGCGGAGACAUGAGGAUCACCCAUGUUGGAGACGAAAUCUAGGGUAGAAGGUACCAGGACGC [AK SSNG2-V2-13] (Eterna round: R96, puzzle: Same State NG 2)”, the “apparent KD of MS2 coat protein” value (input ligand: FMN 200 uM) is reported as 41.5 nM, the “apparent KD of MS2 coat protein” value [1] is reported as 64.6 nM and the “apparent KD of MS2 coat protein” value (input ligand: none) is reported as 72.9 nM.

With “UCUUGGUUUUUGCUCGUUUUUUGUGUUGAACAUGAGGAUCACCCAUGUAUUGUACGGUCCGGUUUAAUAGUGGUCCG [JMF 14] (puzzle: Sensor for hsa-mir-208a)” the “apparent KD of MS2 coat protein” value [2] was 27.8 nM, the “apparent KD of MS2 coat protein” value [3] was 15.4 nM and the “apparent KD of MS2 coat protein” value [4] was 28.3 nM.

With “UUUAGUUGCGGGCAGGAUAUGUAUUAAAAUACAUGAGGAUCACCCAUGUACGGGUAUAACACCCGACAGAAGGGCCAAUCGCGAC [Laonerce - 4] (puzzle: Same State 2)” the “apparent KD of MS2 coat protein” value [2] was 16.8 nM, the “apparent KD of MS2 coat protein” value [3] was 62.6 nM and the “apparent KD of MS2 coat protein” value [4] was 91.5 nM.

In the case of “UUAGUCAUGUAAGGAUAUGCAGCCGAAACGGCUGCAGAAGGUACUAUAAUUACAUGAGGAUCACCCAUGUUAUAAAAUAAAUAU [Mat - Same State NG 1 - JL mod - D63] (Eterna round: R96, puzzle: Same State NG 1)”, the “apparent KD of MS2 coat protein” value (input ligand: FMN 200 uM) is reported as 22.9 nM, the “apparent KD of MS2 coat protein” value [1] is reported as 25.6 nM and the “apparent KD of MS2 coat protein” value (input ligand: none) is reported as 48 nM.

For “AAUUAAGAUCAAGGAUAUCACGUCGAUUAGACGUGAGAAGGUGAUAAUUACAUGAGGAUCACCCAUGUAUAACAUGAAUUAAUU [SSNG1/9-B2] (Eterna round: R96, puzzle: Same State NG 1)”, the “apparent KD of MS2 coat protein” value (input ligand: FMN 200 uM) was 31.8 nM, the “apparent KD of MS2 coat protein” value [1] was 23.9 nM and the “apparent KD of MS2 coat protein” value (input ligand: none) was 33.5 nM.

With “GUGGUGGGUUGAGGAUAUUGGUUGCAUAUGUUUAACAUGAGGAUCACCCAUGUGGGUUGCGGUUUCGAGAAGGUAGGUUGCUGG [salish99_SSNG2_r04_045bad] (Eterna round: R96, puzzle: Same State NG 2)” the “apparent KD of MS2 coat protein” value (input ligand: FMN 200 uM) was 112 nM, the “apparent KD of MS2 coat protein” value [1] was 106 nM and the “apparent KD of MS2 coat protein” value (input ligand: none) was 112 nM.

“GCAGGAAGCAAAGGAUAUGGAAGAUUACUCAGUCCAGAAGGUUGCUUCUUGGAACAUGAGGAUCACCCAUGUCACCGUUACGGC [Eternabot solution 30] (Eterna round: R96, puzzle: Same State NG 1)” was tested, and the “apparent KD of MS2 coat protein” value (input ligand: FMN 200 uM) was 15.8 nM, the “apparent KD of MS2 coat protein” value [1] was 19 nM and the “apparent KD of MS2 coat protein” value (input ligand: none) was 14.5 nM.

With “UCAAUCAUGUAAGGAUAUGCAGCCGAAACGGCUGCAGAAGGUACUAUAAUUACAUGAGGAUCACCCAUGUUAUAAAAUUAAAAU [Mat - Same State NG 1 - JL mod - D69] (Eterna round: R96, puzzle: Same State NG 1)” the “apparent KD of MS2 coat protein” value (input ligand: FMN 200 uM) was 35.3 nM, the “apparent KD of MS2 coat protein” value [1] was 101 nM and the “apparent KD of MS2 coat protein” value (input ligand: none) was 130 nM.

In the case of “UCUUGGUUUUUGCUCGUUUUUUGUGUUGAACAUGAGGAUCACCCAUGUAUUGUACGAUCCAGUUAGAUGGUGGUUUG [JR_SHM208A_Sub044] (puzzle: Sensor for hsa-mir-208a)”, the “apparent KD of MS2 coat protein” value [2] is reported as 63.1 nM, the “apparent KD of MS2 coat protein” value [3] is reported as 70.1 nM and the “apparent KD of MS2 coat protein” value [4] is reported as 91.9 nM.
